Assay results as given in PMC4821178 (Insect Biochemistry and Molecular Biology, 2016).

What was measured:
[1] = target: human nicotinic acetylcholine receptor α7 subunit with a three amino acid (IIC) deletion in TM4 (human) (UniProt P36544); experiment: radioligand binding
[2] = target: T1, human nicotinic acetylcholine receptor α7 subunit, wild type (human, UniProt P36544 23-502); experiment: radioligand binding; conditions: one partner purified
T1 construct: also called Hα7; human α7 nAChR

Molecule | EC50 [1] | EC50 [2]
[3H]-α-bungarotoxin (from UniProt P60615 22-95) (natural protein) | 0.9 nM | 
[3H]-α-bungarotoxin (natural protein) IVCHTTATSPISAVTCPPGENLCYRKMWCDAFCSSRGKVVELGCAATCPSKKPYEEVTCCSTDKCNPHPKQRPG |  | 20 ± 5.8 nM
